The text below walks through data of patent EP4570823A1.

The assay deals with Aβ oligomers, P05067. Put plainly: SPR (Biacore), 3F fixed on CM5 chip, Aβ oligomers in flow. As to conditions: remark: other sources report otherwise.
Chain of Aβ oligomers, P05067 (P05067 672-713): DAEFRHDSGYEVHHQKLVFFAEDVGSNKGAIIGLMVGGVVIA

B1: antibody 3F (scFv)
scFv: MAEVQLLESGGGLVQPGGSLRLSCAASGFTFSSYAMSWVRQAPGKGLEWVSGISNLGLTTGYADSVKGRFTISRDNSKNTLYLQMNSLRAEDTAVYYCAKTTSRFDYWGQGTLVTVSSGGGGSGGGGSGGGGSTDIQMTQSPSSLSASVGDRVTITCRASQSISSYLNWYQQKPGKAPKLLIYKASYLQSGVPSRFSGSGSGTDFTLTISSLQPEDFATYYCQNSAVRPVTFGQGTKVEIKR
As to B1, the Kd (in general, the concentration at which binding is half-saturated) was found to be 0.847 nM.
